According to article PMC6471336, “Production and Characterization of Recombinant Wild Type Uricase from Indonesian Coelacanth (L. menadoensis) and Improvement of Its Thermostability by In Silico Rational Design and Disulphide Bridges Engineering” (International Journal of Molecular Sciences, 2019):

B1: L. menadoensis uricase, wild type (LM-UOX-6His) (enzyme, UniProt M3XGK0 1-306, looked up)
chain: MSHYVSSTRFQKDTDVEFVRTGYGKNIVKVLHIKREGKTHYIKEVEVAVQLALKSRKDYLYGDNSDIIPTDTMKNTVHALAKLKGINTIEEFAMDICEHFLTSFNHVTRANTYVEEAPWKRMEKNEVKHVHAFIYSPEATRFCEVEHHQNEPPVVHSGIKDMKVLKTTQSGFEGFVKDRFTTLPEVTDRCFSTVIYSKWLYNRSKNIDFDAAWKTVYDVIIEKFAGPYECGEYSPSVQKTLYETQVLCLNRVPEIEEVEIVMPNKHYFTIDMSKIGIVNKDEVLLPLDNPSGNITGTVRRKAHSKL
notes: Uricase (urate oxidase) of Latimeria menadoensis, 306 amino acids; synthetic cDNA amplified with primers from the start codon to the last codon (no stop codon), cloned NdeI/XhoI into pET20b(+); The His6 tag is joined to the protein by two residues from the XhoI site; also called WT; WT LM-UOX; source: E. coli BL21(DE3), purified (Ni-NTA IMAC, gel filtration); not shown: His6, C-terminal, kept
B2: L. menadoensis uricase S136C mutant (enzyme, UniProt M3XGK0 1-306, looked up)
chain: MSHYVSSTRFQKDTDVEFVRTGYGKNIVKVLHIKREGKTHYIKEVEVAVQLALKSRKDYLYGDNSDIIPTDTMKNTVHALAKLKGINTIEEFAMDICEHFLTSFNHVTRANTYVEEAPWKRMEKNEVKHVHAFIYCPEATRFCEVEHHQNEPPVVHSGIKDMKVLKTTQSGFEGFVKDRFTTLPEVTDRCFSTVIYSKWLYNRSKNIDFDAAWKTVYDVIIEKFAGPYECGEYSPSVQKTLYETQVLCLNRVPEIEEVEIVMPNKHYFTIDMSKIGIVNKDEVLLPLDNPSGNITGTVRRKAHSKL
notes: Uricase (urate oxidase) of Latimeria menadoensis, 306 amino acids, same construct as the wild type (pET20LM-UOX) with S136C by site-directed mutagenesis; His6 tag joined by two residues from the XhoI site, as in m1; source: E. coli BL21(DE3), purified (Ni-NTA IMAC, gel filtration); not shown: His6, C-terminal, kept
B3: L. menadoensis uricase D288C mutant (enzyme, UniProt M3XGK0 1-306, looked up)
chain: MSHYVSSTRFQKDTDVEFVRTGYGKNIVKVLHIKREGKTHYIKEVEVAVQLALKSRKDYLYGDNSDIIPTDTMKNTVHALAKLKGINTIEEFAMDICEHFLTSFNHVTRANTYVEEAPWKRMEKNEVKHVHAFIYSPEATRFCEVEHHQNEPPVVHSGIKDMKVLKTTQSGFEGFVKDRFTTLPEVTDRCFSTVIYSKWLYNRSKNIDFDAAWKTVYDVIIEKFAGPYECGEYSPSVQKTLYETQVLCLNRVPEIEEVEIVMPNKHYFTIDMSKIGIVNKDEVLLPLCNPSGNITGTVRRKAHSKL
notes: Uricase (urate oxidase) of Latimeria menadoensis, 306 amino acids, same construct as the wild type (pET20LM-UOX) with D288C by site-directed mutagenesis; His6 tag joined by two residues from the XhoI site, as in m1; source: E. coli BL21(DE3), purified (Ni-NTA IMAC, gel filtration); not shown: His6, C-terminal, kept
B4: L. menadoensis uricase N289C mutant (enzyme, UniProt M3XGK0 1-306, looked up)
chain: MSHYVSSTRFQKDTDVEFVRTGYGKNIVKVLHIKREGKTHYIKEVEVAVQLALKSRKDYLYGDNSDIIPTDTMKNTVHALAKLKGINTIEEFAMDICEHFLTSFNHVTRANTYVEEAPWKRMEKNEVKHVHAFIYSPEATRFCEVEHHQNEPPVVHSGIKDMKVLKTTQSGFEGFVKDRFTTLPEVTDRCFSTVIYSKWLYNRSKNIDFDAAWKTVYDVIIEKFAGPYECGEYSPSVQKTLYETQVLCLNRVPEIEEVEIVMPNKHYFTIDMSKIGIVNKDEVLLPLDCPSGNITGTVRRKAHSKL
notes: Uricase (urate oxidase) of Latimeria menadoensis, 306 amino acids, same construct as the wild type (pET20LM-UOX) with N289C by site-directed mutagenesis; His6 tag joined by two residues from the XhoI site, as in m1; source: E. coli BL21(DE3), purified (Ni-NTA IMAC, gel filtration); not shown: His6, C-terminal, kept
B5: L. menadoensis uricase I27C/N289C mutant (enzyme, UniProt M3XGK0 1-306, looked up)
chain: MSHYVSSTRFQKDTDVEFVRTGYGKNCVKVLHIKREGKTHYIKEVEVAVQLALKSRKDYLYGDNSDIIPTDTMKNTVHALAKLKGINTIEEFAMDICEHFLTSFNHVTRANTYVEEAPWKRMEKNEVKHVHAFIYSPEATRFCEVEHHQNEPPVVHSGIKDMKVLKTTQSGFEGFVKDRFTTLPEVTDRCFSTVIYSKWLYNRSKNIDFDAAWKTVYDVIIEKFAGPYECGEYSPSVQKTLYETQVLCLNRVPEIEEVEIVMPNKHYFTIDMSKIGIVNKDEVLLPLDCPSGNITGTVRRKAHSKL
notes: His6 tag joined by two residues from the XhoI site, as in m1; which cysteines pair (C27 with C289 of the other subunit of a dimer) is a prediction only; source: E. coli BL21(DE3), purified (Ni-NTA IMAC, gel filtration); not shown: His6, C-terminal, kept
B6: L. menadoensis uricase A132C/A225C mutant (enzyme, UniProt M3XGK0 1-306, looked up)
chain: MSHYVSSTRFQKDTDVEFVRTGYGKNIVKVLHIKREGKTHYIKEVEVAVQLALKSRKDYLYGDNSDIIPTDTMKNTVHALAKLKGINTIEEFAMDICEHFLTSFNHVTRANTYVEEAPWKRMEKNEVKHVHCFIYSPEATRFCEVEHHQNEPPVVHSGIKDMKVLKTTQSGFEGFVKDRFTTLPEVTDRCFSTVIYSKWLYNRSKNIDFDAAWKTVYDVIIEKFCGPYECGEYSPSVQKTLYETQVLCLNRVPEIEEVEIVMPNKHYFTIDMSKIGIVNKDEVLLPLDNPSGNITGTVRRKAHSKL
notes: His6 tag joined by two residues from the XhoI site, as in m1; source: E. coli BL21(DE3), purified (Ni-NTA IMAC, gel filtration); not shown: His6, C-terminal, kept

Key:
purified protein = substrate: O=c1[nH]c(=O)c2[nH]c(=O)[nH]c2[nH]1; assay: purified protein; assay type: biochemical, Latimeria menadoensis; conditions: 50 mM sodium borate pH 8.0, 30 °C, 15-120 µM uric acid
[1] = target: the molecule itself; assay: SEC; 16/60 Sephacryl S-300 HR gel-filtration column; molecular weight under native condition calculated from the retention volume (Kav) against a calibration curve

Protein	Km (purified protein)	kcat (purified protein)	kcat/Km (purified protein)	stoichiometry N [1]
B1	18.43 ± 0.4 µM	29.9 ± 0.3 s⁻¹	1.62e+06 M⁻¹ s⁻¹	4
B2	15.28 ± 0.1 µM	22.49 ± 0.1 s⁻¹	1.47e+06 M⁻¹ s⁻¹	4
B3	189.65 ± 0.2 µM	65.07 ± 0.3 s⁻¹	340000 M⁻¹ s⁻¹	4
B4	30.46 ± 0.1 µM	34.06 ± 0.1 s⁻¹	1.12e+06 M⁻¹ s⁻¹	4
B5	35.39 ± 0.1 µM	32.58 ± 0.2 s⁻¹	920000 M⁻¹ s⁻¹	4
B6	39.19 ± 0.5 µM	58.2 ± 0.6 s⁻¹	1.49e+06 M⁻¹ s⁻¹	4
